# In doi:10.1101/2023.07.03.547386:
# Molecular target: ATG8CL (recombinant, purified) (potato)
# Assay: ITC
# Sequence of ATG8CL (recombinant, purified) (potato) (M1C146 whole entry): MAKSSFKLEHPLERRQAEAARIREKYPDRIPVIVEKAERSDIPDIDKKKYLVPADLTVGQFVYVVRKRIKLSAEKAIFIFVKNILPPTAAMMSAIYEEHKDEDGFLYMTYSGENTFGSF
substance,measurement,value
Rab3GAPL AIM peptide (Rab3GAPL-AIMp),Kd,962 nM
same,stoichiometry N,1.03
